We go through one sequence from patent US20170114108A1.

The target of the test is H4 tail (residues 1-30) of the H4ac indicator (UniProt P62805). Briefly: cell-based or functional assay.

Consider “TATA binding protein (TBP)-associated factor II (TAFII) bromodomain”, for which the percent of cells discriminated from autofluorescence (FACS), H4ac indicator, 1 µM SAHA is 5 % of cells; the percent of cells discriminated from autofluorescence (FACS), H4ac indicator, 2.5 µM SAHA was 20 % of cells; the percent of cells discriminated from autofluorescence (FACS), H4ac indicator, 7.5 µM SAHA was 40 % of cells; the percent of cells discriminated from autofluorescence (FACS), H4ac indicator, 10 µM SAHA is 45 % of cells.
